T1: human ICOS-mFc (Chimerigen) (human, UniProt Q9Y6W8 21-140)
T1 construct: Bought; also called recombinant human ICOS protein; hICOS; not shown: mouse Fc of the bought fusion
T1 sequence: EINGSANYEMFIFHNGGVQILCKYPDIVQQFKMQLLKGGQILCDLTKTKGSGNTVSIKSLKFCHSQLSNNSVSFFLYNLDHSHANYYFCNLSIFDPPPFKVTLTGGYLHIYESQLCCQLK

T2: mouse ICOS-mFc (Chimerigen) (mouse, UniProt Q9WVS0 21-141, limits assumed)
T2 construct: Bought; also called recombinant mouse ICOS protein; mICOS; not shown: mouse Fc of the bought fusion
T2 sequence: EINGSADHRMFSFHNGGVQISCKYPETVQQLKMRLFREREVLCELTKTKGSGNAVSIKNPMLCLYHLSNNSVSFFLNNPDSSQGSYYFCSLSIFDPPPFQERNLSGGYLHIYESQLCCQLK

T3: human ICOS expressed on cells (human, UniProt Q9Y6W8 21-199)
T3 construct: also called CHO-S cells transfected with human ICOS; hICOS
T3 sequence: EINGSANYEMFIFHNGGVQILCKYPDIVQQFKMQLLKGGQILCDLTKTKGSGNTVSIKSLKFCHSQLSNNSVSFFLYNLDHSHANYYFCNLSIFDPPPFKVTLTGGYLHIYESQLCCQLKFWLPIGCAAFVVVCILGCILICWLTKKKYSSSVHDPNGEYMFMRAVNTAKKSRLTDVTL

B1: STIM001 (antibody, human IgG1, kappa)
heavy: not shown
light: DIVMTQSPLSLPVTPGEPASISCRSSQSLLHSNEYNYLDWYLQKPGQSPQLLIFLGSNRASGVPDRFSGSGSGTDFTLKITRVEAEDVGIYYCMQSLQTPLTFGGGTKVEIKRTVAAPSVFIFPPSDEQLKSGTASVVCLLNNFYPREAKVQWKVDNALQSGNSQESVTEQDSKDSTYSLSSTLTLSKADYEKHKVYACEVTHQGLSSPVTKSFNRGEC
notes: Anti-ICOS monospecific antibody, tested as human IgG1; also called STIM001 monoclonal IgG1 antibody
B2: STIM003 (antibody, human IgG1, kappa)
heavy: not shown
light: EIVLTQSPGTLSLSPGERATLSCRASQSVSRSYLAWYQQKRGQAPRLLIYGASSRATGIPDRFSGDGSGTDFTLSISRLEPEDFAVYYCHQYDMSPFTFGPGTKVDIKRTVAAPSVFIFPPSDEQLKSGTASVVCLLNNFYPREAKVQWKVDNALQSGNSQESVTEQDSKDSTYSLSSTLTLSKADYEKHKVYACEVTHQGLSSPVTKSFNRGEC
notes: Anti-ICOS monospecific antibody, tested as human IgG1; also called STIM003 monoclonal IgG1 antibody

Legend:
[1] = molecular target: T1, human ICOS-mFc (Chimerigen); assay: DELFIA ELISA on coated human ICOS-mFc, N=2
Experimental: (§1) Recombinant ICOS proteins, human ICOS-mFc or mouse ICOS-mFc (Chimerigen) were diluted in 1×PBS and added to Black Hi-bind plates (Griener) at 1 μg/ml, 50 μl/well. Recombinant PD-L1 proteins, human PD-L1-Flag-His or mouse-His were diluted in 1×PBS and added to Black Hi-bind plates (Griener) at 4 μg/ml, 50 μl/well. The plates were left overnight at 4° C. The next day plates were washed 3× with 300 μl/well of 1×PBS+0.1% Tween and blocked with 200 ul/well of 1×PBS+1% BSA blocking buffer for 1 hr at RT on a plate shaker. Plates were washed 3× with 300 μl/well of 1×PBS+0.1% Tween.
(§2) However, human-PD-L1 mAb² antibodies were diluted in 1×PBS+0.1% BSA buffer and diluted 1 in 2 from a starting working concentration of 0.066 μM over an 11 point titration. Titrated antibodies were added to the plates, 50 μl/well and left to incubate for 1 hr at R.T on a plate shaker. Plates were washed 3× with 300 μl/well of 1×PBS+0.1% Tween.
(§3) DELFIA® Eu-labelled Anti-human IgG (Perkin-Elmer) was diluted 1:500 in DELFIA Assay buffer (Perkin-Elmer) and added to the assay plate (50 μl/well), left to incubate for 1 hr at RT on a plate shaker. […] After incubation, assay was read on Envision plate reader (Perkin Elmer), Time-resolved fluorescence (TRF) was measured at 615 nm.

[2] = molecular target: T1, human ICOS-mFc (Chimerigen); assay: HTRF, human ICOS-mFc, competitor human B7-H2-Alexa 647, n3
Experimental: (§4) 5 μl of human ICOS-mFc (Chimerigen) at 20 nM (5 nM final) or 5 ul of mouse ICOS-mFc (Chimerigen) at 4 nM (1 nM final) were added to relevant assay wells. Plate was incubated for 1 hour (hr) at room temperature (RT).
(§5) After incubation, assay was read on Envision plate reader (Perkin Elmer) using a standard HTRF protocol. 620 nm and 665 nm channel values were exported to Microsoft Excel and % Delta-F and % Neutralisation calculations performed. Titration curves and IC50 values [M] were plotted using Graphpad (Prism). IC50 values were calculated by first transforming the data using equation X=Log(X). The transformed data was then fitted using nonlinear regression, using fitting algorithm, log (inhibitor) vs. response—variable slope (four parameters).

[3] = molecular target: T1, human ICOS-mFc (Chimerigen); assay: DELFIA ELISA on coated human ICOS-mFc, mean
Experimental: as §1, §2, §3

[4] = molecular target: T1, human ICOS-mFc (Chimerigen); assay: HTRF, human ICOS-mFc, competitor human B7-H2-Alexa 647, n1
Experimental: as §4, §5

[5] = molecular target: FcγRIIIa on effector cells (Jurkat NFAT luciferase v-variant effector cells, Promega) (human, UniProt P08637 17-254); assay: cell-based or functional assay
[6] = molecular target: T2, mouse ICOS-mFc (Chimerigen); assay: DELFIA ELISA on coated mouse ICOS-mFc, N=3
Experimental: as §1, §2, §3

[7] = molecular target: T3, human ICOS expressed on cells; assay: Flow cytometry on CHO-S human ICOS cells, anti-human IgG AF647, mean
Experimental: CHO—S cells transfected with either human ICOS or mouse ICOS were resuspended in FACS buffer (PBS+1% w/v BSA+0.1% w/v sodium azide) and transferred to a 96-well V-bottom plate (Greiner) at a density of 1×10⁵ cells per well. mAb and mAb² were titrated in FACS buffer, 1 in 3 dilution across 11 points from a starting working concentration of 400 nM. Plates were centrifuged at 300×g for 3 minutes, supernatant discarded and 50 μL mAb or mAb² solution were added to cells and incubated at 4° C. for 1 hour. Cells were washed with 150 μL of PBS and centrifuged at 300×g for 3 minutes, supernatant was discarded and cell pellet resuspended in 150 μL PBS added. This wash step was repeated twice. Bound mAb or mAb² was detected by addition of 50 μL of anti-human 647 (Jackson ImmunoResearch) diluted to 3 ug/ml in FACS buffer. Cells were incubated for 1 hour at 4° C. in the dark. Cells were washed with 150 μL of PBS and centrifuged at 300 g for 3 minutes, supernatant was discarded and cell pellet resuspended in 150 μL PBS added. This wash step was repeated twice. Cells were fixed with 25 μL 4% v/v paraformaldehyde, incubated for 20 minutes at 4° C., cells were pelleted by centrifugation at 300×g and the supernatant discarded. […] AlexaFluor 647 signal intensity (geometric mean) was measured by flow cytometry using a Beckman Coulter CytoFLEX instrument.

Chain of FcγRIIIa on effector cells (Jurkat NFAT luciferase v-variant effector cells, Promega) (P08637 other isoform, or with tags, fused parts or gaps mutant limits assumed): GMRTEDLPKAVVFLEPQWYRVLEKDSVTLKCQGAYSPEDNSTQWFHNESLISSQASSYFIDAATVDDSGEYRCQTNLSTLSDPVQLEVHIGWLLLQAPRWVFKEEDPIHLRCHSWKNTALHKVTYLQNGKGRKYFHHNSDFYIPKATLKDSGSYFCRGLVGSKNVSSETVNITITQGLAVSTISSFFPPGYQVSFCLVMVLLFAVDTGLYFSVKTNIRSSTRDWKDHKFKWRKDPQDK

Binder	EC50 [1]	IC50 [2]	EC50 [3]	IC50 [4]	EC50 of luciferase fold of induction, CHO human ICOS target cells, N=1 [5]	EC50 of luciferase fold of induction, CHO human ICOS target cells, N=2 [5]	EC50 of luciferase fold of induction, CHO human ICOS target cells, N=3 [5]	EC50 of luciferase fold of induction, CHO human ICOS target cells, mean [5]	EC50 of luciferase fold of induction, CHO mouse ICOS target cells, N=1 [5]	EC50 of luciferase fold of induction, CHO mouse ICOS target cells, N=2 [5]	EC50 of luciferase fold of induction, CHO mouse ICOS target cells, N=3 [5]	EC50 of luciferase fold of induction, CHO mouse ICOS target cells, mean [5]	EC50 [6]	EC50 [7]
B1	25.5 nM	2.33 nM	28.9 nM	0.96 nM	0.456 nM	0.247 nM	0.147 nM	0.283 nM	0.479 nM	0.534 nM	0.579 nM	0.53 nM	1.73 nM	21.2 nM
B2	1.04 nM	0.71 nM	0.751 nM	0.43 nM	0.326 nM	0.477 nM	0.24 nM	0.347 nM	0.508 nM	0.754 nM	0.703 nM	0.655 nM	0.338 nM	5.53 nM

— patent publication US20240343810A1 (published 2024)
